The Human Domainome abundance scans (Beltran et al. 2025)
± gives the uncertainty stated by the source.

B1: Zinc finger homeobox protein 3, residues 2147 to 2202; numbered along this chain, Q15911 (parent)
chain: RPRTRITDDQLRVLRQYFDINNSPSEEQIKEMADKSGLPQKVIKHWFRNTLFKERQ

Variants of: B1
Assay: abundance fitness (aPCA) (normalised: wild type 0, dead -1); higher = more abundant; growth selection in yeast, the domain comes from the species named
Conditions: Homo sapiens

| Variant | abundance fitness |
| --- | --- |
| R3T | 0.197 ± 0.12 |
| R3C | -0.426 ± 0.13 |
| R5T | 0.137 ± 0.068 |
| R5P | 0.127 ± 0.084 |
| R5C | 0.076 ± 0.093 |
| R5N | 0.201 ± 0.084 |
| R5V | 0.129 ± 0.07 |
| S36E | -0.14 ± 0.11 |
| S36M | -0.157 ± 0.093 |
| S36K | -0.706 ± 0.12 |
| S36R | -0.828 ± 0.077 |
| S36T | 0.127 ± 0.079 |
| L14F | -0.064 ± 0.16 |
| L14G | -0.876 ± 0.076 |
| L14R | -0.982 ± 0.083 |
| L14H | -0.666 ± 0.14 |
| L14W | -0.721 ± 0.1 |
| D19R | -0.031 ± 0.061 |
| D19G | -0.125 ± 0.061 |
| D19T | -0.02 ± 0.089 |
| D19F | -0.171 ± 0.12 |

| Variant | abundance fitness |
| --- | --- |
| D19I | -0.051 ± 0.1 |
| D19K | 0.101 ± 0.1 |
| D19V | 0.014 ± 0.069 |
| D19Y | 0.044 ± 0.12 |
| S25Q | -0.223 ± 0.098 |
| S25H | -0.537 ± 0.23 |
| S25V | -0.356 ± 0.078 |
| S25I | -0.361 ± 0.15 |
| S25F | -0.623 ± 0.15 |
| S25G | 0.024 ± 0.069 |
| S25A | -0.14 ± 0.071 |
| S25P | -0.191 ± 0.099 |
| S25Y | -0.382 ± 0.14 |
| S25N | -0.196 ± 0.13 |
| E31A | -0.151 ± 0.085 |
| E31N | -0.399 ± 0.17 |
| E31V | -0.079 ± 0.083 |
| E31L | -0.259 ± 0.09 |
| E31Q | -0.507 ± 0.16 |
| E31W | -0.404 ± 0.11 |
| E31Y | -0.448 ± 0.15 |

| Variant | abundance fitness |
| --- | --- |
| E31C | -0.213 ± 0.11 |
| Q56D | -0.844 ± 0.38 |
| Q56G | -0.419 ± 0.33 |
| Q56T | -0.298 ± 0.23 |
| Q56P | -0.261 ± 0.44 |
| K53R | -0.033 ± 0.068 |
| K53M | 0.09 ± 0.11 |
| K53D | -0.18 ± 0.17 |
| K53Y | 0.141 ± 0.25 |
| K53P | -0.192 ± 0.12 |
| K53E | -0.006 ± 0.1 |
| N22W | -0.19 ± 0.083 |
| N22T | 0.079 ± 0.089 |
| N22K | -0.085 ± 0.11 |
| N22V | -0.022 ± 0.071 |
| N22A | 0.022 ± 0.072 |
| N22D | -0.189 ± 0.12 |
| N22L | -0.092 ± 0.074 |
| N22F | -0.222 ± 0.17 |
| D9Y | -0.148 ± 0.11 |
| D9I | -0.176 ± 0.11 |

| Variant | abundance fitness |
| --- | --- |
| D9K | 0.046 ± 0.098 |
| D9P | -0.074 ± 0.085 |
| D9S | 0.098 ± 0.07 |
| R48Y | -0.413 ± 0.21 |
| R48G | -0.118 ± 0.068 |
| R48E | 0.057 ± 0.12 |
| R48K | 0.107 ± 0.13 |
| R48H | -0.064 ± 0.21 |
| F18W | 0.022 ± 0.077 |
| F18V | -0.333 ± 0.072 |
| F18Q | -0.203 ± 0.095 |
| F18E | -0.555 ± 0.091 |
| F18C | -0.161 ± 0.093 |
| F18H | -0.259 ± 0.14 |
| Q40I | -0.162 ± 0.15 |
| Q40M | -0.103 ± 0.11 |
| Q40G | -0.073 ± 0.074 |
| Q16G | 0.008 ± 0.068 |
| Q16A | -0.065 ± 0.076 |
| Q16M | -0.01 ± 0.086 |
| Q16L | -0.091 ± 0.076 |
